Experimental data published in patent US20050203007A1 (REGENTS OF THE UNIVERSITY OF MICHIGAN, published 2005).

How the values were obtained:
secreted, soluble Kex2 [1] = molecular target: T1, secreted, soluble Kex2 (Saccharomyces cerevisiae, UniProt P13134 114-613, limits assumed); assay: enzyme inhibition, purified variant; Kassoc
T1 construct: Secreted, soluble construct; also called kexin
T1 sequence (looked up): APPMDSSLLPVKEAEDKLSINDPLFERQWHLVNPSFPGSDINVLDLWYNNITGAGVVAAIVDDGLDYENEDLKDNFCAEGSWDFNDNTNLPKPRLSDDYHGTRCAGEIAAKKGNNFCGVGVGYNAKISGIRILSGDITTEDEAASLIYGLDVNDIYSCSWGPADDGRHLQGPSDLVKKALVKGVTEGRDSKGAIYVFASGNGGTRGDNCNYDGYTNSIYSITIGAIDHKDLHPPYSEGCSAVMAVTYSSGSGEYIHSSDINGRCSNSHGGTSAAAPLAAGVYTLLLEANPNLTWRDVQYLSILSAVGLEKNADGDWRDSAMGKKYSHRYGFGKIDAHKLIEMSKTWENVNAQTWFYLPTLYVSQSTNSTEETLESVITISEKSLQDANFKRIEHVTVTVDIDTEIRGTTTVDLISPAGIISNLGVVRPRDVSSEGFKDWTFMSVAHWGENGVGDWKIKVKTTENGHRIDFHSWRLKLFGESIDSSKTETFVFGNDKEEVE

secreted, soluble furin [2] = molecular target: T2, secreted, soluble furin (human, UniProt P09958 108-715, limits assumed); assay: enzyme inhibition, purified variant; Kassoc
T2 construct: Secreted, soluble construct; also called human furin

human PC7 = molecular target: T3, human PC7 (human, UniProt Q16549 142-667, limits assumed); assay: enzyme inhibition, purified variant; Kassoc
T3 sequence (looked up): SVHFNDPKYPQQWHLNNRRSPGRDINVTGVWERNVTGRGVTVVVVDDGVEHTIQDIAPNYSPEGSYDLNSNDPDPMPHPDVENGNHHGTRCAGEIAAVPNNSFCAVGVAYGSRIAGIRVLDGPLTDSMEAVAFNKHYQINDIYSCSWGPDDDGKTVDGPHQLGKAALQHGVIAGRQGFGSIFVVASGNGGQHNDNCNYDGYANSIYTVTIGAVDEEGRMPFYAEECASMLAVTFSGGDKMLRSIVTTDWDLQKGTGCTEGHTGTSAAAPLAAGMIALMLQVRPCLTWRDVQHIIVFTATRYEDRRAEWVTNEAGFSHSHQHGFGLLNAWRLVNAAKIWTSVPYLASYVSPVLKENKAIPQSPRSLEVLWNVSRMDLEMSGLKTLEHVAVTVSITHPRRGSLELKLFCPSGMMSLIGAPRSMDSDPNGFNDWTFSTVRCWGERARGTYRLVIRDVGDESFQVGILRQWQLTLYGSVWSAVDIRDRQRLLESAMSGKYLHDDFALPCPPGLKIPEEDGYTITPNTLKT

secreted, soluble Kex2 [3] = molecular target: T1, secreted, soluble Kex2; assay: equilibrium enzyme inhibition, fluorogenic substrate
secreted, soluble furin [4] = molecular target: T2, secreted, soluble furin; assay: as above

T2 sequence (P09958 108-715 limits assumed): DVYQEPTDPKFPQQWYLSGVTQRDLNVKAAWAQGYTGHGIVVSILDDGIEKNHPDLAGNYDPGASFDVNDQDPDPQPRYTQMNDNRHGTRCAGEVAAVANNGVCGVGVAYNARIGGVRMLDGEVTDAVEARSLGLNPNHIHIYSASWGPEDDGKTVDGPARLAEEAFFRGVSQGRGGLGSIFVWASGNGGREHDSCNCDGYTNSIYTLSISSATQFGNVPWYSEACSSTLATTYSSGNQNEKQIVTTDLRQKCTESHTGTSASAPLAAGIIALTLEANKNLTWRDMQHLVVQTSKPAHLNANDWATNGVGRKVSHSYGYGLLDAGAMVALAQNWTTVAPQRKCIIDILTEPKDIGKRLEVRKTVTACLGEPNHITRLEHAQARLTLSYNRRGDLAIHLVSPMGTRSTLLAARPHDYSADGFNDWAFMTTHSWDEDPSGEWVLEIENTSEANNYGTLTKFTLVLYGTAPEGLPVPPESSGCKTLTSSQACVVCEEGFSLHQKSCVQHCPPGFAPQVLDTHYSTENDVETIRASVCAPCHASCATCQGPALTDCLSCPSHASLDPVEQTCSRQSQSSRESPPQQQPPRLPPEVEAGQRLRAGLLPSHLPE

- Ka (secreted, soluble Kex2 [1]): 1.1e+09 M⁻¹
- Ka (secreted, soluble furin [2]): 4e+08 M⁻¹
- Ka (human PC7): 7.7e+08 M⁻¹
- Ki (secreted, soluble Kex2 [3]): 0.91 nM
- Ki (secreted, soluble furin [4]): 2.5 nM
B1: R4R1-eglin (designed binder)
chain: SMGSELKSFPEVVGKTVDQAREYFTLHYPQYDVYFLPEGSRVTRDLRYNRVRVFYNPGTNVVNHVPHVG
notes: N-terminal Met removed; also called Tyr49-R4R1-; D33Y49
